Data as given in US9222119B2, “Detection of degradative enzymes and biomolecules in bodily fluids” (The Regents of the University of California, priority 2008, dated 2015).
diamino‑ethyl = ethylenediamine linker to Bodipy FL

Experiments:
Format in all cases: biochemical
[1] = target: T1, bovine pancreatic trypsin (Bos taurus, UniProt P00760); test: Detection of trypsin in human plasma using NCDPS; details: un-diluted human plasma, 1 h reaction
T1 construct: from tissue; host or cells: bovine pancreas (lyophilized enzyme)
T1 sequence (P00760 24-246): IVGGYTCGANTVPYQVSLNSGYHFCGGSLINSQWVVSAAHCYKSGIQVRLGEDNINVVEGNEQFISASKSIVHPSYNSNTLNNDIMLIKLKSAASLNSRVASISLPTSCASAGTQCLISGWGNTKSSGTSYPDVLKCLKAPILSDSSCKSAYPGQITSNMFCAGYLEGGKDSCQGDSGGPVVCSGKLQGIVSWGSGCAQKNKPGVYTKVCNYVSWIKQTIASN
Protocol: (§1) In this example a 1 mg/ml (650 μM) stock solution of the peptide substrate was prepared from lyophilized Ac-N-[…]diamino-ethyl-Bodipy FL (MW 1537.4) (SEQ ID NO:29) by dissolving the peptide in 1×PBS at pH 7.8. […] Both proteases were serially diluted in 1 mM HCl in order to obtain the desired concentrations. A solution of 486 μg/ml (316 μM) of the Ac-N-[…]diamino-ethyl-Bodipy FL peptide was prepared in un-diluted human plasma. Aliquots of 14.4 μl of the peptide plasma solution were mixed with 1 μl aliquots of various concentrations of the proteases or 1 ul of 1 mM HCl for the negative control and then allowed to react for one hour. Samples of about 6 μl each containing 3 μg (300 μM) of the substrate with protease concentrations that ranged from 500 nM (lanes 1-2), 100 nM (lanes 3-4), 50 nM (lanes 5-6), 30 nM (lanes 7-8), 20 nM (lanes 9-10) or 0 nM (lanes 11-12) were loaded into the wells of a 4% high resolution agarose gel in 0.5×TBE. […] Gels were then quantified with a Storm 480 gel scanner using ImageQuant v5.2 (Molecular Dynamics, Sunnyvale, Calif.) (fluorescence mode, high sensitivity, 100 μm pixel size, 1000V photomultiplier tube) with a 450 nm excitation filter and a 520 nm long pass emission filter. […]

[2] = target: T2, bovine pancreatic α-chymotrypsin (Bos taurus, UniProt P00766); test: Detection of α-chymotrypsin in 1×PBS buffer using NCDPS, agarose gel electrophoresis; details: 1×PBS pH 7.8, 300 μM substrate, 1 h reaction
T2 construct: from tissue; host or cells: bovine pancreas (lyophilized enzyme)
Protocol: (§2) In this experiment a 1 mg/ml (650 μM) stock solution of the NCDPS substrate Ac-N-[…]diamino-ethyl-Bodipy FL (SEQ ID NO:29) (MW 1537.4) was prepared by dissolving the peptide in 1× phosphate buffered saline (PBS) at pH 7.8. […] Both proteases were serially diluted in 1 mM HCl in order to obtain the desired concentrations. A solution of 486 μg/ml (316 μM) of the Ac-N-[…]diamino-ethyl-Bodipy FL peptide was prepared in 1×PBS (pH 7.8). Aliquots of 14.4 μl of the […] peptide solution (1×PBS) were mixed with 1 μl aliquots of various concentrations of the proteases or 1 ul of 1 mM HCl for the negative control, and then allowed to react for one hour. 6 μl samples containing 3 μg (300 μM) of the substrate with protease concentrations ranging from 500 nM (lanes 1-2), 100 nM (lanes 3-4), 50 nM (lanes 5-6), 30 nM (lanes 7-8), 20 nM (lanes 9-10) or 0 nM (lanes 11-12) were loaded into the wells of a 4% high resolution agarose gel run in 0.5×TBE. […] Gels were then quantified with a Storm 480 gel scanner using ImageQuant v5.2 (Molecular Dynamics, Sunnyvale, Calif.) (fluorescence mode, high sensitivity, 100 μm pixel size, 1000V photomultiplier tube) with a 450 nm excitation filter and a 520 nm long pass emission filter. […]

[3] = target: T2, bovine pancreatic α-chymotrypsin; test: Detection of α-chymotrypsin in human plasma using NCDPS; details: un-diluted human plasma, 1 h reaction
Protocol: as §1

[4] = target: T1, bovine pancreatic trypsin; test: Detection of trypsin in 1×PBS buffer using NCDPS, agarose gel electrophoresis; details: 1×PBS pH 7.8, 300 μM substrate, 1 h reaction
Protocol: as §2

[5] = tested on: human pancreatic α-chymotrypsin; test: Detection of chymotrypsin activity in whole rat blood or 1×PBS using NCDPS substrate; details: 1×PBS or whole rat blood, 1 h incubation, α-chymotrypsin stocks 2, 0.4, 0.08, 0 mg/ml
Protocol: In this experiment 7 μl of 1× phosphate buffered saline (PBS) at pH 7.8 or 7 μl of whole rat blood were mixed with the following: 7 μl of 1 mg/ml Acetyl-N-[…]Bodipy FL (SEQ ID NO:26) in 1×PBS pH 7.8; 0.4 μl of 2 M CaCl2; and 0.5 μl of the following concentrations 2 mg/ml, 0.4 mg/ml, 0.08 mg/ml and 0 mg/ml of human pancreatic α-chymotrypsin. The mixtures were incubated for 1 hour and then 6 μl of sample was loaded into the wells of a 4% high resolution agarose gel. The five wells on the left-hand side were loaded with 1×PBS samples and the five wells on the right right-hand side were loaded with the whole rat blood samples. Electrophoresis was performed for 30 minutes at 80 V and then the gel was imaged using a BioDoc-It® System with a Model M-26 transilluminator (UVP, Upland, Calif.). The upper FIG. 26A show the gel before the electric field was applied and the quenching of fluorescent signal from NCDPS substrate by the blood samples can clearly be seen in the five wells on the […] side. This sensitivity-reducing quenching issue would occur for many of the current types of fluorescent enzyme assays utilizing classical fluorogenic substrates. As a result, these latter methods typically require considerable sample preparation, which is time-consuming and makes the measurements less accurate, in order to recover fluorescent signal.

Substance	detection level by inspection of gel (FIG. 22) [1]	detection level by inspection of gel (FIG. 20) [2]	detection level by inspection of gel (FIG. 22) [3]	detection level by inspection of gel (FIG. 20) [4]	cleavage products on gel after electrophoresis (FIG. 26B) [5]
Ac-N-Asp-Gly-Asp-Ala-Gly-Tyr-Ala-Gly-Leu-Arg-Gly-Ala-Gly-diamino-ethyl-Bodipy FL (Ac-DGDAGYAGLRGAG-{diamino‑ethyl-Bodipy FL}) [SEQ ID NO:29, NCDPS substrate for chymotrypsin and trypsin, net charge −1]	about 20 nM	about 20 nM	about 20 nM	about 30 nM	–
Acetyl-N-Asp-Gly-Asp-Ala-Gly-Tyr-Ala-Gly-Leu-Arg-Gly-Ala-Gly-Bodipy FL (Ac-DGDAGYAGLRGAG-{Bodipy FL})	–	–	–	–	appearance of cleavage products in the first three 1×PBS samples and in the blood samples
